# Measured values reported in patent US20200361992A1 (PROTAGONIST THERAPEUTICS, published 2020).
# Starred links: 1 amine or outer side, 2 acyl side, 3 side chain; linkers in the order of their positions; H or OH if unused. Positions of bridges follow the written chain, without caps; N, C: chain ends. Non-standard residues stand in square brackets, D forms with d. Groups on a side chain read outwards from the residue. Primed or numbered codes have the meaning given here. *: point of attachment. PEG4′ = bifunctional PEG linker with 4 polyethylene glycol units; PEG12 = NCCOCCOCCOCCOCCOCCOCCOCCOCCOCCOCCOCCOCCC(=O)O; Phe(4-tBu) = CC(C)(C)c1ccc(C[C@H](N)C(=O)O)cc1; Docosanoyl = CCCCCCCCCCCCCCCCCCCCCC(=O)*; Dip = N[C@H](C(=O)O)C(c1ccccc1)c1ccccc1; γGlu = O=C(O)[C@H](CCC(=O)[*:2])N[*:1]; 2Nal = N[C@@H](Cc1ccc2ccccc2c1)C(=O)O; AEF = NCCOc1ccc(C[C@H](N)C(=O)O)cc1; Palmitoyl = CCCCCCCCCCCCCCCC(=O)*; Pen = CC(C)(S)[C@H](N)C(=O)O; Isovaleryl = CC(C)CC(=O)*; PEG2′ = not defined here; PEG8′ = not defined here; Npc = nipecotic acid; Ahx = NCCCCCC(=O)O; Sar = CNCC(=O)O
# T1: human ferroportin (SLC40A1) fused with GFP, stably expressed in HEK293 cells (human, UniProt Q9NP59 1-571)
# T1 sequence (looked up): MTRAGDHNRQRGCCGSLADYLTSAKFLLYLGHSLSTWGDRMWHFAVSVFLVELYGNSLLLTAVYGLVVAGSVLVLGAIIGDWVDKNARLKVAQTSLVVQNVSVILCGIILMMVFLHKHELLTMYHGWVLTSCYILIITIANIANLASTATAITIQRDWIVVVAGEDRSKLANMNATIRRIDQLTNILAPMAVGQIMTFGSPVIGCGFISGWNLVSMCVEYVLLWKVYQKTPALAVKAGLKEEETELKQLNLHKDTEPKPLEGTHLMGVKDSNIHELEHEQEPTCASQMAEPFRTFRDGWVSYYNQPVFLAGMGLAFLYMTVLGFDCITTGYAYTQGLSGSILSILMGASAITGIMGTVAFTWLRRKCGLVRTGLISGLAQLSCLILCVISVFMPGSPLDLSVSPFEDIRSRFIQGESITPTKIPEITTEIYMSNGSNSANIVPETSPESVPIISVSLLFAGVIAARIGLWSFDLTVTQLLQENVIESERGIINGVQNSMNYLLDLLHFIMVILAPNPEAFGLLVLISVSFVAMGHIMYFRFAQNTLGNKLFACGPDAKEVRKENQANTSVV
# B1: Compd ID 74 (peptide)
# peptide: Isovaleryl-DTHFPCI[dK]FK([PEG12-Palmitoyl])PRSK[Sar]C-NH2
# modifications: disulfide 6-16 (inferred)
# B2: Compd ID 75 (peptide)
# peptide: Isovaleryl-DTHFPCI[dK]FK([PEG12-Palmitoyl])PRSKCK-NH2
# modifications: disulfide 6-15 (inferred)
# B3: Compd ID 76 (peptide)
# peptide: Isovaleryl-DTHFPCI[dK]FK([PEG12-Palmitoyl])PPRSCK-NH2
# modifications: disulfide 6-15 (inferred); not fully specified
# B4: Compd ID 77 (peptide)
# peptide: Isovaleryl-DTHFPCI[dK]FK([PEG12-Palmitoyl])PRCK-NH2
# modifications: disulfide 6-13 (inferred)
# B5: Compd ID 78 (peptide)
# peptide: Isovaleryl-DTHFPCI[dK]FK([PEG12-Palmitoyl])CK-NH2
# modifications: disulfide 6-11 (inferred)
# B6: Compd ID 4 (peptide)
# peptide: DTHFPCIKFKPRSKC
# modifications: Isovaleric acid-DTHFPCIKF-Lys[PEG11-Palm]-PRSKC-NH2
# B7: Compd ID 79 (peptide)
# peptide: Isovaleryl-DTHFPCI[dK]FK([PEG12-Palmitoyl])RC-NH2
# modifications: disulfide 6-12 (inferred)
# B8: Compd ID 80 (peptide)
# peptide: Isovaleryl-DTHFPCI[dK]FK([PEG12-Palmitoyl])KC-NH2
# modifications: disulfide 6-12 (inferred)
# B9: Compd ID 81 (peptide)
# peptide: Isovaleryl-DTHFPCI[dK]FK([PEG12-Palmitoyl])[dR]C-NH2
# modifications: disulfide 6-12 (inferred)
# B10: Compd ID 82 (peptide)
# peptide: Isovaleryl-DTHFPCI[dK]FK([PEG12-Palmitoyl])[dK]C-NH2
# modifications: disulfide 6-12 (inferred)
# B11: Compd ID 83 (peptide)
# peptide: Isovaleryl-DTHFPCI[dK]FK([PEG12-Palmitoyl])KC[dK]-NH2
# modifications: disulfide 6-12 (inferred)
# B12: Compd ID 84 (peptide)
# peptide: Isovaleryl-DTHFPCI[dK]FK([PEG12-Palmitoyl])HC[dH]-NH2
# modifications: disulfide 6-12 (inferred)
# B13: Compd ID 85 (peptide)
# peptide: Isovaleryl-DTHFPCI[dK]FK([PEG12-Palmitoyl])RC[dR]-NH2
# modifications: disulfide 6-12 (inferred)
# B14: Compd ID 86 (peptide)
# peptide: Isovaleryl-DTHFPCI[dK]FK([Ahx-Palmitoyl])KC-NH2
# modifications: disulfide 6-12 (inferred)
# B15: Compd ID 87 (peptide)
# peptide: Isovaleryl-DTHFPCI[dK]FK([PEG2′-Palmitoyl])KC-NH2
# modifications: disulfide 6-12 (inferred)
# B16: Compd ID 88 (peptide)
# peptide: Isovaleryl-DTHFPCI[dK]FK([PEG2′-PEG2′-Palmitoyl])KC-NH2
# modifications: disulfide 6-12 (inferred)
# B17: Compd ID 5 (peptide)
# peptide: DTHFPCIKFKPRSC
# modifications: Isovaleric acid-DTHFPCIKF-Lys[PEG11-Palm]-PRSC-NH2
# B18: Compd ID 89 (peptide)
# peptide: Isovaleryl-DTHFPCI[dK]FK([PEG2′-PEG2′-C18 acid])KC-NH2
# modifications: disulfide 6-12 (inferred)
# B19: Compd ID 90 (peptide)
# peptide: Isovaleryl-DTHFPCI[dK]FK([PEG2′-PEG2′-Ahx-Palmitoyl])KC-NH2
# modifications: disulfide 6-12 (inferred)
# B20: Compd ID 91 (peptide)
# peptide: Isovaleryl-DTHFPCI[dK]FK([PEG4′-Palmitoyl])KC-NH2
# modifications: disulfide 6-12 (inferred)
# B21: Compd ID 92 (peptide)
# peptide: Isovaleryl-DTHFPCI[dK]FK([PEG4′-Ahx-Palmitoyl])KC-NH2
# modifications: disulfide 6-12 (inferred)
# B22: Compd ID 93 (peptide)
# peptide: Isovaleryl-DTHFPCI[dK]FK([PEG4′-PEG4′-Palmitoyl])KC-NH2
# modifications: disulfide 6-12 (inferred)
# B23: Compd ID 94 (peptide)
# peptide: Isovaleryl-DTHFPCI[dK]FK([PEG4′-γGlu-Palmitoyl])KC-NH2
# modifications: disulfide 6-12 (inferred)
# B24: Compd ID 95 (peptide)
# peptide: Isovaleryl-DTHFPCI[dK]FK([PEG8′-Palmitoyl])KC-NH2
# modifications: disulfide 6-12 (inferred)
# B25: Compd ID 96 (peptide)
# peptide: Isovaleryl-DTHFPCI[dK]FK(Docosanoyl)KC-NH2
# modifications: disulfide 6-12 (inferred)
# B26: Compd ID 97 (peptide)
# peptide: Isovaleryl-DTHFPCI[dK]FK([PEG12-Palmitoyl])K[dC]-NH2
# modifications: disulfide 6-12 (inferred)
# B27: Compd ID 98 (peptide)
# peptide: Isovaleryl-DTHFPCI[dK]FK([PEG12-Palmitoyl])K[Pen]-NH2
# modifications: disulfide 6-12 (inferred)
# B28: Compd ID 6 (peptide)
# peptide: DTHFPCIKFKPRC
# modifications: Isovaleric acid-DTHFPCIKF-Lys[PEG11-Palm]-PRC-NH2
# B29: Compd ID 99 (peptide)
# peptide: DTHFPCIKFKXC
# modifications: Isovaleric acid-DTHFPCI-[(D)Lys]-F-Lys[PEG11-Palm]-Dap-[Cys]-NH2
# B30: Compd ID 100 (peptide)
# peptide: DTHFPCIKXKKC
# modifications: Isovaleric acid-DTHFPCI-[(D)Lys]-[Dpa]-Lys[PEG11-Palm]-K-[Cys]-NH2
# B31: Compd ID 101 (peptide)
# peptide: DTHFPCIKXKKC
# modifications: Isovaleric acid-DTHFPCI-[(D)Lys]-[b-homoPhe]-Lys[PEG11-Palm]-K-[Cys]-NH2
# B32: Compd ID 102 (peptide)
# peptide: DTHFPCIKXKKC
# modifications: Isovaleric acid-DTHFPCI-[(D)Lys]-[Nal]-Lys[PEG11-Palm]-K-[Cys]-NH2
# B33: Compd ID 103 (peptide)
# peptide: DTHFPCIKXKKC
# modifications: Isovaleric acid-DTHFPCI-[(D)Lys]-[bhomoPhe]-Lys[PEG11-Palm]-K-[Cys]-NH2
# B34: Compd ID 104 (peptide)
# peptide: DTHXPCIKFKKC
# modifications: Isovaleric acid-D-T-H-[Dpa]-P-C-I-[(D)Lys]-F-Lys[PEG11-Palm]-K-[Cys]-NH2
# B35: Compd ID 105 (peptide)
# peptide: DTHXPCIKXKKC
# modifications: Isovaleric acid-D-T-H-[Dpa]-P-C-I-[(D)Lys]-[b-homoPhe]-Lys[PEG11-Palm]-[(D)Lys]-[Cys]-NH2
# B36: Compd ID 106 (peptide)
# peptide: Isovaleryl-DTHFPCIFK([PEG12-Palmitoyl])KC-NH2
# modifications: disulfide 6-11 (inferred)
# B37: Compd ID 107 (peptide)
# peptide: Isovaleryl-DTHFPCI[dK]F[dK]([PEG12-Palmitoyl])[dK]C-NH2
# modifications: disulfide 6-12 (inferred)
# B38: Compd ID 109 (peptide)
# peptide: Isovaleryl-DTH[Dip][Npc]CI[dK]FK([PEG12-Palmitoyl])KC-NH2
# modifications: disulfide 6-12 (inferred)
# B39: Compd ID 7 (peptide)
# peptide: DTHFPCIKFKPC
# modifications: Isovaleric acid-DTHFPCIKF-Lys[PEG11-Palm]-PC-NH2
# B40: Compd ID 110 (peptide)
# peptide: Isovaleryl-DTH[Dip][Npc]CI[dK][Phe(4-tBu)]K([PEG12-Palmitoyl])KC-NH2
# modifications: disulfide 6-12 (inferred)
# B41: Compd ID 111 (peptide)
# peptide: Isovaleryl-DTH[Dip][Npc]CI[dK][AEF]K([PEG12-Palmitoyl])KC-NH2
# modifications: disulfide 6-12 (inferred)
# B42: Compd ID 112 (peptide)
# peptide: Isovaleryl-DTH[Dip][Npc]CI[dK][2Nal]K([PEG12-Palmitoyl])KC-NH2
# modifications: disulfide 6-12 (inferred)
# B43: Compd ID 114 (peptide)
# peptide: DTHFPCIKFKKX
# modifications: Isovaleric acid-DTH-F-PCI-[(D)Lys]-F-[Lys(Peg11-Palm)]-K-[a-MeCysl-NH2
# B44: Compd ID 115 (peptide)
# peptide: DTHFPXIKFKKX
# modifications: Isovaleric acid-DTHFP-[a-MeCys]-I-[(D)Lys]-F-[Lys(Peg11-Palm)]-K-[a-MeCys]-NH2
# B45: Compd ID 116 (peptide)
# peptide: DTHFPXIKFKKC
# modifications: Isovaleric acid-DTHFP-[a-MeCys]-I-[(D)Lys]-F-[Lys(Peg11-Palm)]-K-C-NH2
# B46: Compd ID 117 (peptide)
# peptide: Isovaleryl-DTH[Dip][Npc]CI[dK]FK([PEG12-Palmitoyl])[dK]C-NH2
# modifications: disulfide 6-12 (inferred)
# Biological target: T1, human ferroportin (SLC40A1) fused with …
# Assay: cell-based or functional assay
row,Binder,FPN IC50 [nM]
1,B1,9
2,B2,14
3,B3,16
4,B4,15
5,B5,17
6,B6,32
7,B7,22
8,B8,14
9,B9,9
10,B10,13
11,B11,40
12,B12,16
13,B13,27
14,B14,9
15,B15,15
16,B16,13
17,B17,30
18,B18,27
19,B19,11
20,B20,14
21,B21,21
22,B22,18
23,B23,9

row,Binder,FPN IC50 [nM]
1,B24,28
2,B25,30
3,B26,41
4,B27,40
5,B28,17
6,B29,21
7,B30,16
8,B31,24
9,B32,17
10,B33,20
11,B34,27
12,B35,31
13,B36,40
14,B37,60
15,B38,2
16,B39,10
17,B40,3
18,B41,> 3000
19,B42,4
20,B43,3
21,B44,4
22,B45,11
23,B46,2
